Assay results: PMC4660432
pKd: −log10 of the molar value.

How the values were obtained:
[1] = test system: TAF1 double bromodomain (TAF1-BrD); test: EMSA; conditions: EMSA: 20 mM Tris-HCl pH 7.5, 40 mM NaCl, 0.75 mM EDTA, 1 mM DTT, 1 h at 25 C, 2.5 pmol NCP, 5% native PAGE in 0.2x TBE
[2] = biological target: K5/K8-di-acetylated nucleosome core particle (human) (UniProt P04908); test: native gel or EMSA; 2.5 pmol NCP mixed with the TAF1-BrD at the indicated ratios; 20 mM Tris-HCl pH 7.5, 40 mM NaCl, 0.75 mM EDTA, 1 mM DTT; 1 hr at 25 °C; native 5% PAGE in 0.2x TBE; densitometry; dissociation constants estimated from triplicates
[3] = biological target: K16-acetylated nucleosome core particle (human) (UniProt P04908); test: as above
[4] = biological target: K12-acetylated nucleosome core particle (human) (UniProt P04908); test: as above
[5] = biological target: unmodified nucleosome core particle (biochemical analyses; N11-thrombin-tagged H4) (human) (UniProt P04908); test: as above
[6] = biological target: K5/K8/K12/K16-tetra-acetylated nucleosome core particle (biochemical analyses; N11-thrombin-tagged H4) (human) (UniProt P04908); test: as above

Substance: H4-K16ac NCP
- pKd ([1]; histone H4 K16ac): 4.88

Substance: H4-K12ac NCP
- pKd ([1]; histone H4 K12ac): 4.91

Substance: H4-K5/K8-di-acetylated NCP
- pKd ([1]; histone H4 K5ac, K8ac): 5.21

Substance: TAF1 double bromodomain (from UniProt P21675 1-1893) (domain or fragment)
- pKd [2]: 5.21
- pKd [3]: 4.88
- pKd [4]: 4.91
- pKd [5]: 4.71
- pKd [6]: 5.41

Substance: unmodified NCP
- pKd [1]: 4.71

Substance: H4-K5/K8/K12/K16-tetra-acetylated NCP
- pKd ([1]; histone H4 K5ac, K8ac, K12ac, K16ac): 5.41
